From the nanobody polyreactivity screen of Harvey et al. (2022)

Assay: yeast display, Sf9 membrane polyspecificity reagent, FACS + sequencing; frameworks hold sequencing errors
How it was run: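 In a synthetic yeast display library (Saccharomyces cerevisiae BJ5465), nanobody expression was induced with galactose for 36–48 hours. FACS gates were set low and high (top ~1%) using anti-HA fluorescence for expression and streptavidin fluorescence for binding of the Sf9 membrane reagent. Each polyreactivity label is drawn from the gate of origin.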

| Sequence | polyreactivity (PSR sort gate) |
| --- | --- |
| QDQHVESGGGLVQAGGTLRISCAASGFTFYVYAMGWYRQAPGKEMELVASISKSGGSTYYADSVKGRFTITRDNAKNTVFLQMNSLKTVDTAVYYCAVYDKRSCYRGGHRYNSCGQGTQVTVSS | high polyreactivity |
| QVQLVESGGGLVQAGGSLRLSCAASGRIFRGYVMGWYRQAPGKERELVARITKSGGRTYYADSVKGRFTISRDNAKNTVYLQMNSLKPEDTAVYYCNTAWTGYPRYQYGGNYWGQGTQVTVSS | high polyreactivity |
| QVQLVESGGGLVQAGGSLRLRCAASGKTFSWYALGWYRLAPGKERELVAVITSGGSTNYADSVKWRFTISRDNAKNTVYLQMNSLKPEDTAVYYCNRRPYGFEEFDYWGQGTQVTVSS | low polyreactivity |
| QVQLVESGGGLVQAGGSLRLSCAASGFNFERYAMGWYRQAPGKERELVAAISSRGGGTYYADSVKGRFTISRDNAKNTVYLQMNSLKPEDTAVYYCNRPYDYSYNYWGQGTQVTVSS | high polyreactivity |
| QVQLVESGGGLVQAGGSLRLSCDASGSIFDLNAMGWYRQAPGKERELVAAISSGGGTNYADSVKGRFTISRDNAKNTVYLQMYSLKPEDTAVYYCAVGSTRDGVYLGQGTQVTVSS | high polyreactivity |
| QVQLVESGGGLVQAGGSLRLSSAASGFTFGNNAMVWYRQAPGKEREFVATISRRGGSTYYADSVKGRFTISRDNAKNTVYLLMNSLKPEDTAVYYCAVDRAGIKFAAGYDYWGQGTQVTVSS | high polyreactivity |
| QVQLVESGGGLVQAGGSLRLSCAASGRTFSTYAMGWYRQAPGKERELVAAITTSGGNTYYADSVKGRFTISRDNAKNTVYLQMNSLKPEDTAVYYCNAKQQPYGGTDYDYWGQGTQVTVSS | low polyreactivity |
| QVQLVESGGGLVQAGGSLRLSCDASGNTFLWYAMGWYRQAPGKERELVAAITYSGGSTYYADSVKGRFTISRDNAKITVYLQMNSLKPEDTARYYCNADYFGYDYVEYGYWGQGTQVTVSS | low polyreactivity |
| QVQLEESGGCLVQAGGSLRLRCAASGRIVALNAMGWYRQAPGKERELVATIRCRGGATYYADSVKGRFTISRDNAKNTVYLQMNSLKPEDNAVYYCDAFTGNRRTYDYWGQGTQVTVSS | high polyreactivity |
| QVQLVESGGGLVQAGGSLRLSCAASGFTFYRYAMGWYRQAPGQEREVVAAIRKSGGSTYYADSVKGRFTISRDNAKTTVYLQMNSLKPEDTAVYYCAKRYATDGFGYWGQGTQVTVSS | high polyreactivity |
| QVQLVESGGGVVQAGGSLRLSCAASGRIFYYNARGWYRQAPGKERELVAVISRNGGRTYYADSVKGRFTISRDNAKITVYLQMNSLKPEDTAVYYCAARSAGDRYDYWGQGTQVTVSS | high polyreactivity |
| QVQLVESGGGLVQAGGSLRLSCAASGFIFPQYAMGWYRQAPGKERELVAAISWSGTRTYYADSVKGRFTISRDNAKNTVYLQMNSLKPEDTAVYYCAARIDRQYRWTGFGYWGQGTQVTVSS | high polyreactivity |
| QVQLVESGGGLVQAGGSLRLSCAASGFTIDLYAMGWYRQAPGKERELVAAISIRGGSTYYADSVKGRFTISRDNAKNTVYLQMNSLKPEDTAVYYCATVTSRRSYIAYRGTGDYDYWGQGTQVTVSS | low polyreactivity |
| QVQLVESGGGLVQAGRSLRLSCAASGLTFRVYPMGWYRQAPGKDRELVAAITGGGGSTYADSVKGRFTISRDNAKNTVYLQMYSLKPEDTAVSYCNKKGYYYKFDYWGQGTQVTVSS | low polyreactivity |
| QVQLVESGGGLVQAGGSLRLSCAASGIIFDGYVMGWYRQAPGNERELVAAISRSGGRTFYADSVKGRFTISRDNAKNTVYLQMNSLKPEATAVYYCAARRVRTRGYNYWGQGTQVTVSS | high polyreactivity |
| QVQLVESGGGLVQAGGSLRLSCAASGRTFRYYTMGWYRQAPGTERELVAAITGGSRTNYADSVKGRFTISRDNAKNTVYLQMNSLKPEDTAVYYCAARRSYLLRYDYWGQGTQVTVSS | high polyreactivity |
| QVQLVDSGGGLVQAGGSLRLSCAASGRTFSSYAMGSYRQAPGKERELVAAINWSGASTYYADSVKGRFTISRDYAKNTVYLQLNSLKPEDTAVYDCAKSLYVGKFWQIRSSVDYWGQGTQVTVSS | low polyreactivity |
| QVQLVESCVVLVQAAGSLRLSFAHSGSTFKVYAMGTYRQATGKERELVASISSGGSTNYADSVKGRFTISRDNAKNTVYLQMNSLKPEDTAVYYCALRRYTHRRYRFDYWGQGTQVTVSS | high polyreactivity |
| QVQLVESGGGLVQAGGSLRLSCAASGITFTFNAMGWYRQAPGKDRELVAAMTWSGGSTFYADSVKGRFTISRDNAKNTVYLQMNSLKPEDSAVYYCARDTELYVRWLDYWGQGTQVTVSS | low polyreactivity |
| QVQLVESGGGLVQAGGSLRLSCAASGSTFDYNAMGWYRQAPGKERELVADITGSGASTSYADSVKGRFTISRDNAKNTVYLQMNSLKPEDTAVYFCAADQTPVGQVYYGTLSIRDYWGQGTQVTVSS | low polyreactivity |
| QVHLVESGGGLVQAGGSLRLSSAASGSNFGLNAMGWSRQAPGKERELVAAITWSGGSSTYYADTVKGRLTISRDNAKNSVYLQMKSLKPEDTAVYYCAARRVFIPYYVRFYYWGQGTQVTVSS | high polyreactivity |
